Measurements reported in patent publication US20120317681A1.

Assays:
[1] = molecular target: Cry1Ca receptor protein(s) / binding site on Brush Border Membrane Vesicles (BBMV's) from Spodoptera frugiperda (Spodoptera frugiperda); test: homologous competition; displacement of 0.5 nM 125I-labeled Cry1Ca core toxin from S. frugiperda BBMV (150 ug/mL)
[2] = molecular target: Cry1Ca receptor protein(s) / binding site on Brush Border Membrane Vesicles (BBMV's) from Spodoptera frugiperda (Spodoptera frugiperda); test: heterologous competition; displacement of 0.5 nM 125I-labeled Cry1Ca core toxin from S. frugiperda BBMV (150 ug/mL)

Substance	IC50 [1]	IC50 [2]
Cry1Ca core toxin protein (non-radiolabeled, trypsin-activated) (from UniProt P0A376 28-618) (ligand)	5 nM	–
Cry1Fa core toxin protein (non-labeled, trypsin-activated) (from UniProt Q03746 28-605) (ligand)	–	> 300 nM
